Assay: yeast display, Sf9 membrane polyspecificity reagent, FACS + sequencing; frameworks hold sequencing errors
In short: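 Genes from sorted yeast were amplified by colony PCR, read by MiSeq 2 × 250 sequencing and filtered on CDR length. These cells carried a synthetic nanobody library in Saccharomyces cerevisiae BJ5465 and were sorted by FACS into low and high (top ~1%) gates on anti-HA and streptavidin fluorescence. Polyreactivity is labelled according to the gate of origin.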

Sequence	polyreactivity (PSR sort gate)
QVQLVESGGGLVQAGGSLRLSCAASGSTFWWYAMGWYRQAPGKERELVADITTGGSTNYADSVKGRFTISRDNAKNTVYLQMNSLKPEDTAVYYCNADGVTPYTWRLRYFKYHFDYWGQGTQVTVSS	low polyreactivity
QVQLVESGGGLVQAGGSLRLSCAASGSTFWYNAMGWYRQAPGKERELVARISYSGGSTYYADSVKGRFTISRDNAKNTVYLQMNSLKPEDTAVYYCAARRPYKYDYWGQGTQVTVSS	high polyreactivity
QVQLVESGGGLVQAGGSLRLSCAASGSTFWYYAMGWFRQAPGKERELVAAITRGASTNYADSVKGRFTISRDNAKNTVYLQMNSLKPEDTAVYYCAAGPARWKGYYWGQGTQVTVSS	high polyreactivity
QVQLVESGGGLVQAGGSLRLSCAASGSTFWYYAMGWYRPAPGKERELVAAITISGGSTYYADSVKGRFTISRDNAKNTVYLQMNSLKPEDTAVYYCATDDTHRVGWFDYWGQGTQVTVSS	low polyreactivity
QVQLVESGGGLVQAGGSLRLSCAASGSTFWYYAMGWYRQAPGKERELVAAIRWSDGSTYYADSVKGRFTISRDNAKNTVYLQMNSLKPEDTAVYYCEYYYWGQGTQVTVSS	low polyreactivity
QVQLVESGGGLVQAGGSLRLSCAASGSTFWYYAMGWYRQAPGKERELVATITTSGGNTYYADSVKGRFTISRDNAKNTVYLQMNSLKPEDTAVYYCAARRYRASSRGYGYWGQGTQVTVSS	high polyreactivity
QVQLVESGGGLVQAGGSLRLSCAASGSTFWYYAMGWYRQAPGKEWEFVAAIKWSGGRTDYADSVKGRFTISRDIAKNTVYLQMNSLKAEDTAVYYFAADYSFRSFPIDANVLGYEYWGQGTQVTVSS	high polyreactivity
QVQLVESGGGLVQAGGSLRLSCAASGSTFWYYTMGSYRQAPGKERELVAAIRYSGTRTYYADSVKGRFTISRDNAKTTVYLQMNSLKPEDTAVYYCARYRTPGYQAYLYDYWGQGTQVTVSS	low polyreactivity
QVQLVESGGGLVQAGGSLRLSCAASGSTFYANAMGWYRQAPGKERELVAAITSGGSTNYADSVKGRFTISRDNAKNTVYLQMNSLKPEDTAVYYCATPVNRERHAEDYWGQGTQVTVSS	low polyreactivity
QVQLVESGGGLVQAGGSLRLSCAASGSTFYANVMGWYRQAPGKDRELVGAIEGSGGRTDYADSVKGRFTISRDNAKNTVYLQMHSLKPEDTAVYYCAKKRIVPVKQFGRDYNYWGQGTQVTVSS	high polyreactivity
QVQLVESGGGLVQAGGSLRLSCAASGSTFYAYALGWYRQAPGKERELVAAISSDGTNYADSVKGRFTISRDNAKNTVYLQMNSLKPVDTAVYYCAADLLLYSSQDNDYWGQGTQVTVSS	low polyreactivity
QVQLVESGGGLVQAGGSLRLSCAASGSTFYAYAMGWYRHAPGKERELVAAIDSGGSTYYADSVKGRFTISRDNAKNTVYFQMNSLKPEDTAVYYCAVRHRYTRAYWGRDYWGQGTQVTVSS	low polyreactivity
QVQLVESGGGLVQAGGSLRLSCAASGSTFYAYAMGWYRQAPGKERELVAAINGSGGSTNYADSVKGRFTISRDNAKHTDYLQMNSQKPEDTAVYYCAADWSRRLYDYWGQGTQVTVSS	low polyreactivity
QVQLVESGGGLVQAGGSLRLSCAASGSTFYAYAMGWYRQAPGKERELVAAIRISGTSTYYADSVKGRFTISRDNAKNTVYLQMNSLKPEDSAVYYCNTLATYVAHNDYWGQGTQVTVSS	high polyreactivity
QVQLVESGGGLVQAGGSLRLSCAASGSTFYAYAMGWYRQAPGKERELVASITYSGVSTYYADSVKGRFTISRDNAKNTVYLQMNSLKPEDTAVYYCATDYSHITYSHYRWWYNEYEYWGQGTQVTVSS	low polyreactivity
QVQLVESGGGLVQAGGSLRLSCAASGSTFYAYAMGWYRQEPGKERELVAAINSVGSTYYADSVKGRFTISRDNAKNTVYLQMNSLKPEDTAVYYCARGVDYPTSQPPYFRHDYWGQGTQVTVSS	low polyreactivity
QVQLVESGGGLVQAGGSLRLSCAASGSTFYAYTMGWYRQAPGKERELVAAISSGGGTYYADSVKGRFTISRDNAKNTVYLQMNSLKPEDTAVYYCAADPVGYYDPSDYWGQGTQVTVSS	low polyreactivity
QVQLVESGGGLVQAGGSLRLSCAASGSTFYAYVMGWYRQAPGKERELVAAIRSSGGRTYYADSVKGRFTISRDNAKNTLYLQMNSLKPEDSAVYYCAKAIWATRQYLRFTDYDYWGQGTQVTVSS	high polyreactivity
QVQLVESGGGLVQAGGSLRLSCAASGSTFYCYVMGWYRQAPGKERALVAAISSGGGTYYADSVKGRFTISRDNAKNTVYLQMNSLKPEDTAVYYSAADASDGQSWYEDYEYDYWGQGTQVTVSS	low polyreactivity
QVQLVESGGGLVQAGGSLRLSCAASGSTFYDNAKGWYRPAPGKERELVAAISYSGASTYYADSVKGRFTISRDNAQNTVYLQMNSLKPEDTAVYYCSKTFYSLYWGQGTQVTVSS	low polyreactivity
QVQLVESGGGLVQAGGSLRLSCAASGSTFYDYAMGWYRQAPGKERELVASITTGGDSTYYADSVKGRFTISRDNAKNTVYLQMNSLKPEDTAVYYCNADWYYWISNYQGAPEMDYWGQGTQVTVSS	high polyreactivity

Sequence	polyreactivity (PSR sort gate)
QVQLVESGGGLVQAGGSLRLSCAASGSTFYDYVMGWYRQAPGKERELVAVISSSGSTNYADSVKGRITISRDNAKNTVYLQMNSLKTEDTAVYYCAAEYTFDWLEFDYWGQGTQVTVSS	low polyreactivity
QVQLVESGGGLVQAGGSLRLSCAASGSTFYEYAMGWYRQAPGKERELVAAISSGGSTYYADSVKGRFTISRDNAKNTVYLQMNSLKPEDTAVYYCNADCQTYGGEYDYWGQGTQVTVSS	low polyreactivity
QVQLVESGGGLVQAGGSLRLSCAASGSTFYEYAMGWYRQAPGKERELVAAISWSDVDTYYADSVKGRFTISRDNAKNTVYLQMNSLKPEDTAVYYCAAEWYHPYTQEMDYWGQGTQVTVSS	high polyreactivity
QVQLVESGGGLVQAGGSLRLSCAASGSTFYFNAMGWYRPAPGKERELVAAIDWSGGSTYYADSVKGRFTISRDNAKNTVYLQMNSLKPEDTAVYYCAADISVGRYGDMDYYYKVDYWGQGTQVTVSS	low polyreactivity
QVQLVESGGGLVQAGGSLRLSCAASGSTFYFNAMGWYRQAPGKEREFVAGIRYSGSSTYYADSVKGRFTISRDNAKNTVYLQMNSLKPEDTAVYYCAAERWCYTVRGYGYWGHGTQVTVSS	high polyreactivity
QVQLVESGGGLVQAGGSLRLSCAASGSTFYFNAMGWYRQAPGKERELVAAIDWSGGSTYYADSVKGRFTISRDNAKNTVYLQMNSLKPEDTAVYYCNADNYEWGNNYGYWGQGTQVTVSS	low polyreactivity
QVQLVESGGGLVQAGGSLRLSCAASGSTFYFNAMGWYRQAPGKERELVAGIRYSGSSTYYADSVKGRFTISRDNAKNTVYLQMNSLKPEDTAVYYCAARYSVYPRVSKYSYRFNYWGQGTQVTVSS	high polyreactivity
QVQLVESGGGLVQAGGSLRLSCAASGSTFYFNAMGWYRQAPGKERELVAGITYSGDSTYYADSVKGRFTISRDNAKNTVYLQMNSLKPEDTAVYYCAADVDYDLDGDYWGQGTQVTVSS	low polyreactivity
QVQLVESGGGLVQAGGSLRLSCAASGSTFYFNTMGWYRQAPGKERELVAAIRRSSGSTYYADSVKGRFTISRDNAKNTVYLQMNSLKPEDTAVYYCAADNAVTRYGRIDRDYWGQGTQVTVSS	low polyreactivity
QVQLVESGGGLVQAGGSLRLSCAASGSTFYFYAMGWYRQAPGKEREFVARISNRDGSTYYADSVKGRFTISRDNAKNTVYLQMNSLKPEDTAVYYCAVKQRASHYPYYSWGQGTQVTVSS	high polyreactivity
QVQLVESGGGLVQAGGSLRLSCAASGSTFYFYTMGWYRQAPGKERELVAAISQDGGSTYYADSVKGRFTISRDNAKNTVYLQMNSLKPEDTAVYYCAADKRGTVYLSSFWMDYWGQGTQVTVSS	low polyreactivity
QVQLVESGGGLVQAGGSLRLSCAASGSTFYFYVMGWYRQAPGKERELVAAITWSGGRTSYADSVKGRFTISRDNAKNTVYLQMNSLKPEDTAVYYCAKDLQNSSHPSRYDYWGQGTQVTVSS	low polyreactivity
QVQLVESGGGLVQAGGSLRLSCAASGSTFYGYAMGWYRQAPGKERELVAAITLIGTSTYYADSVKCRFTISRDNAKNTVYLQMNSLKPEDTAVYYCAAEISYGYGYWGQGTQVTVSS	low polyreactivity
QVQLVESGGGLVQAGGSLRLSCAASGSTFYGYAMGWYRQAPGKERELVAGITSAGSTYYADSVKGRFTISRDNAKNTVYLQMNSLKPEDTAVYYCAYHGAGYYYWGQGTQVTVSS	high polyreactivity
QVQLVESGGGLVQAGGSLRLSCAASGSTFYGYGMGWYRQAPGKERELVAAITGSGDTTYYADSVKGRFTISRDNAKNSVYLQMNSLKPEDTAVYYCNARWHAEYDYWGQGTQVTVSS	low polyreactivity
QVQLVESGGGLVQAGGSLRLSCAASGSTFYGYGMGWYRQAPGKERELVAAITGSGDTTYYADSVKGRFTISRDNAKNTVYLQMNSLKPEDTAVYYCNARWLAEYDYWGQGTQVTVSS	low polyreactivity
QVQLVESGGGLVQAGGSLRLSCAASGSTFYGYTMGWYRQAPGKERELVAAISSSGSSTYYADSVKGRFTISRDNAKNTVYLQMNSLKPEDTAVYYCAAATRVPGHGSTSYYYWGQGTQVTVSS	high polyreactivity
QVQLVESGGGLVQAGGSLRLSCAASGSTFYHNVKGWYRQAPWKERELVASIDTGDSTNYADTVKGRFSISRDNAKKTVYLQMNSLKPEDTAVYYCNADSYPALNKRGYEYWGQGTQVTVSS	low polyreactivity
QVQLVESGGGLVQAGGSLRLSCAASGSTFYHYAMGWYRQAPGKERELVAAISWSGGSTYYADSVKGSFTISRDNAKNTVYLLMYSLKPEDTAVYYCNALLSGLTSTEYDYWGQGTQVTVSS	high polyreactivity
QVQLVESGGGLVQAGGSLRLSCAASGSTFYHYTMGWYRQAPGKERELVARISRSGGSTYYADSVKGRFTISRDNAKNTVYLQMNSLKPEDTAGYYCNKGSFYGSSQVGGTGYDYWGQGTQVTVSS	low polyreactivity

Reference: the nanobody polyreactivity screen of Harvey et al. (2022)
